# Data as given in patent US11242370B2, “Neuregulin-4 compounds and methods of use” (Eli Lilly and Company, priority 2019, dated 2022).
# Substitutions are numbered along the chain they refer to. Numbers in names are those of the source.
# B1: Example 10: NRG4 D1G/V22Q/E44K, (GGGGS)3 linker, SEQ ID NO: 19, fused to IgG Fc dimer SEQ ID NO: 6 and 7 (protein)
# chain 1: GGGGSGGGGSGGGGSGHEEPCGPSHKSFCLNGGLCYQIPTIPSPFCRCVENYTGARCEKVFL
# chain 2: ECPPCPAPPVAGPSVFLFPPKPKDTLMISRTPEVTCVVVDVSHEDPEVQFNWYVDGVEVHNAKTKPREEQFNSTFRVVSVLTVVHQDWLNGKEYKCKVSNKGLPAPIEKTISKTKGQPREPQVYTLPPSREEMTKNQVSLWCLVKGFYPSDIAVEWESNGQPENNYKTTPPVLDSDGSFFLYSKLTVDKSRWQQGNVFSCSVMHEALHNHYTQKSLSLSPG
# chain 3: B1 chain 2 with W141S, L143A, Y182V
# Biological target: T1, human HER2 and HER4 (Homo sapiens, UniProt Q15303)
# T1 construct: expressed in transfected cells
# Test: Screening by human HER2-HER4 mediated ERK 1/2 phosphorylation in CHO-hHER2-hHER4 (clone 1H6) cells
# Assay type: cell-based
# Conditions: Fc variants as 293F supernatants
# Protocol: A cell based assay utilizing CHO-K1 cells overexpressing human or rat HER receptors is used to determine activity of NRG4 compounds. CHO-K1 cells (ATCC) are grown in DMEM-F12 3:1 with 5% FBS with 20 mM HEPES, 40 μg/mL L-Proline, lx antibiotics and were split 1:5 every 2-3 days with TripLE Express (Gibco). Cells are transfected with plasmid DNA encoding HER receptors in pairs (hHER2-3, hHER2-4, rHER2-3 and rHER2-4) with Fugene 6 (Promega) according to the manufacturer's instructions. […] Transfected cells are selected with Puromycin (12 ug/ml) and Hygromycin (1 mg/ml) for 3-4 weeks and clonal lines are obtained by limited dilution cloning into 96 well plates. Clonal lines are selected by appropriate gene expression of HER2, HER3 or HER4 by Taqman method. Lines with appropriate receptor expression are confirmed by NRG1 induced phospho-ERK 1/2 responses. Clones are grown up, harvested, aliquoted into cryovials and then frozen under liquid nitrogen for long-term storage.
# A phospho-ERK1/2 activity assay is used to determine potencies of NRG4 compounds. The potency of Examples 1-8 and 10 as compared to WT human NRG1 and/or human NRG4 are analyzed in studies measuring stimulation of human HER2-HER4 mediated ERK 1/2 phosphorylation. This assay comprises a CHO-K1 stable line expressing human HER2 and HER4. CHO-hHER2-hHER4 (clone 1H6) cells are routinely cultured in DMEM: F12(3:1), 5% FBS, 40 μg/mL L-Proline, 10 μg/mL puromycin and 1 mg/mL hygromycin at 37° C., 5% CO2. Cells are washed twice with 1×PBS, dissociated with 0.05% trypsin/[…] EDTA and collected by centrifugation at 300×g for 10 m. Cells are re-suspended in maintenance media. 20,000 cells/well, in 30 μL, are seeded into 384 well Poly-D-Lysine cell culture plates (Greiner, Cat No. 781946). Plates are covered with a manufacturer's lid and moved to a 37° C. tissue culture incubator at 5% CO^2, 80%+ humidity and allowed to adhere. After 24 h, media are removed from the plates and replaced with 30 μL serum-free starvation media (Low glucose DMEM with 0.1% BSA) using a Biomek FX liquid handler. Plates are returned to the incubator for 24 h.
# hFcNRG4 variants, transiently expressed as 293F supernatants, are prepared in starvation media in a clear 384W plate (Greiner, cat no. 781185) as a 4pt 1:8 serial dilution (dose range averaged between 250 pM to 140000 pM). Media are removed from the cell culture plates and the 30 uL/well prepared variants are stamped into the plates using a Biomek FX liquid handler. Plates are sealed with a foil seal and stimulated for 15 minutes at room temperature on an orbital shaker. Cells are then washed once with 50 uL cold PBS. 30 uL lysis buffer is added to the cells and oscillated for 10 m at RT on an orbital shaker.
# Detection of phosphorylation of ERR 1/2 is performed with either an AlphaScreen SureFire phospho-ERK1/2 kit (T202/Y204) (Perkin Elmer, catalog no. TGRES) or an AlphaLISA® SureFire® Ultra™ p ERK1/2 assay kit together with the AlphaScreen Protein. A IgG Detection Kit (Protein-A) (PerkinElmer, catalogue no. 6760617). After lysis of the CHO-K1 cells. 4 μL lysate is transferred to a 384W Alpha Proxiplate (Perkin Elmer, cat no, 6008280) with a 384W Biomek FX. 4 uL positive and negative lysates (Perkin Elmer, TGRES-L) are added to available wells as controls. 5 uL/well acceptor mix (containing anti-phoso-Thr202/Tyr204 antibodies and Protein A conjugated acceptor beads) is added to the plate with a Forumlatrix Mantis. The plate is sealed, spun down for 1 min at 300×g and incubated for 2 hr at room temperature on an orbital shaker. 2 μL/well donor mix (containing strepavidin coated donor beads and biotinylated antibodies to a distal ERK1/2 epitope) is dispensed by Mantis. The plate is sealed, spun down for 1 min at 300×g and incubated for 2 hr at room temperature on an orbital shaker before reading on the Perkin Elmer Envision 2103 Multilabel Reader (HIS Alpha mode, excitation time: 40 ms, total measurement time: 130 ms). […]
Molecule,EC50 (Table 6),"EC50 (Table 5, Examples average of two replicates ± standard deviation)"
WT NRG1: wild type human NRG1; native peptide purchased from Reprokine in Tables 7-9; comparator in the screening assays of Tables 4 and 6,0.319 nM,
"WT NRG4: wild type human NRG4 (SEQ ID NO:1); parental hFcNRG4 in screening (Tables 4-6), native peptide from Reprokine in Tables 7-9 (DHEEPCGPSHKSFCLNGGLCYVIPTIPSPFCRCVENYTGARCEEVFL; listed as Homo sapiens)",1.3 nM,2.53 nM
B1,0.245 nM,
